The text below walks through data of the RNAGym collection of RNA variant scans (doi:10.7554/elife.80360).

B1: Twister Ribozyme (parent)
chain: AACACUGCCAAUGCCGGUCCCAAGCCCGGAUAAAAGUGGAGGGGGCGG

Variants of B1 are the subject of the data set. Kind of data set: self-cleavage, relative activity (ratio to wild type); higher = more cleavage; co-transcriptional.
For AACACUGCCAAUGCCGGACCCAAGCCCGGAUAAAAGUUGAGGGGGCGG, the self-cleavage was found to be 0.144.
On to AACACUGCCAAUGCCGGCCCCAAGCCCGGAUAAAAGUGGACGGGGCGG, for which the self-cleavage stood at 0.0753.
Turning to AACACUGCCAAUGCUGGUCCCAAGCCCUGAUAAAAGUGGAGGGGGCGG, the self-cleavage turned out to be 0.973.
In the case of AACACUGACAGUGCCGGUCCCAAGCCCGGAUAAAAGUGGAGGGGGCGG, the self-cleavage amounted to 0.588.
As to AACACUGCCAAUGCCGGUCCCAAGGCCGGAUAAAAGUGGAGGGGGGGG, the self-cleavage worked out at 0.223.
As to AAGACUGCCAAUGCCGGCCCCAAGCCCGGAUAAAAGUGGAGGGGGCGG, the self-cleavage was determined as 0.147.
Then AACACUGCCAAUGCCGAUCCCAAGCCCGGAUAAAAGUGGCGGGGGCGG, with 0.105; and AACACUGCCAAUUACGGUCCCAAGCCCGGAUAAAAGUGGAGGGGGCGG, with 0.687.
As for AACACUGCCAAUCCCGGUCCCAAGCCCGGAUACAAGUGGAGGGGGCGG, the self-cleavage stood at 0.236.
For the variant AACACUGCCAUUGCCGGUCCCAAGCCCGGAUAAAAGUGGAGGGUGCGG, the self-cleavage turned out to be 1.07.
Then AACACUGCCAAUGCCGGUCCCAAGCACGGAUAAAAGUGGACGGGGCGG, with 0.124; and AACAUUGCCAAUGCAGGUCCCAAGCCCGGAUAAAAGUGGAGGGGGCGG, with 0.385; and UACACUGCCAAUGCCAGUCCCAAGCCCGGAUAAAAGUGGAGGGGGCGG, with 0.0911.
As for AACACUGCCAAUGCCGGUCCCAAGCCCGGAUAAAAGUGGAGGGGACGU, the self-cleavage was 0.917.
Consider AACACUGCCAAUGCCCGUCCCAAGCCCGGAUCAAAGUGGAGGGGGCGG, for which the self-cleavage was 0.536.
Next, AACACUGCCAAUGCCGCUCCCAACCCCGGAUAAAAGUGGAGGGGGCGG: 0.0583; GACACUGCCAAUGCCGGUACCAAGCCCGGAUAAAAGUGGAGGGGGCGG: 0.247.
As for AACACUGCCAAUGCCGGUCCCAAGCCCGUAUAAAAGUGGAGGGGUCGG, the self-cleavage was found to be 0.574.
Consider AACACUGCCAAUGCCGGUCCCAAGCCCGUAUAAAAGUGGAGGGGCCGG, for which the self-cleavage was determined as 0.294.
Regarding AACACUGCCAAUGCCGGUACCAAGCCCGGAUAAAAGUGGAGGGGGUGG, the self-cleavage worked out at 0.304.
Turning to AACACUACCAAUGCCGGUCCCAAGCCCGGAUAAAAGUGGCGGGGGCGG, the self-cleavage was determined as 0.132.
Turning to AACACUGCCAAUGCCUGUCCCAAGCCCGGAUAAAAGUGGAGGGGCCGG, the self-cleavage came out at 0.554.
AACACUGCCAAUGCCGGUCGCAAGCCCGGACAAAAGUGGAGGGGGCGG: the self-cleavage came to 0.0873.
For AACACUGCCAAUGCCGGUCACAAGCCCGGAUAAAAGUGGGGGGGGCGG, the self-cleavage worked out at 0.0838.
Take AACACUGCCAAUGCCUGUCCCAAGCCCAGAUAAAAGUGGAGGGGGCGG: the self-cleavage was determined as 0.641.
For AACGCUACCAAUGCCGGUCCCAAGCCCGGAUAAAAGUGGAGGGGGCGG, the self-cleavage was 0.169.
In the case of AACACUGCCAAUGCCGGUCCCAAGCCCGGAUGCAAGUGGAGGGGGCGG, the self-cleavage is 0.833.
AACACUGCCCAUGUCGGUCCCAAGCCCGGAUAAAAGUGGAGGGGGCGG: the self-cleavage came to 1.01.
For AACACUGCCAAUGCCGGUCCCUAGCCCGGAUAAAAGUGGAGAGGGCGG, the self-cleavage amounted to 0.126.
With AACACUGUCAAUGCCGGUCCCAAGCCCGGAUAAAAGUGGAGGGGGAGG, the self-cleavage worked out at 0.5.
Next, AGCACUGCCAAUGCCGGUCCCAAGCCCGGAUACAAGUGGAGGGGGCGG: 0.503.
As to AACACUGCCAAUGCCGGUCCCGAGCCCGGAUAAAAUUGGAGGGGGCGG, the self-cleavage was determined as 0.105.
On to AACACUGCGAAUGCCGGUCCCAAUCCCGGAUAAAAGUGGAGGGGGCGG, for which the self-cleavage was 0.0888.
On to AACACUGCCAAUGCCGGUCCCAAGCCCGCAUAAAAGUGGAAGGGGCGG, for which the self-cleavage is 0.108.
Next, AACCCUGCCAAUGCCGGUCCCAAGCCCGGAUAAUAGUGGAGGGGGCGG: 0.0292.
For AACACUGCCAAUGCCGGUCCUAAGCCCGGAUAAAAGUGGAGGGGUCGG, the self-cleavage was found to be 0.118.
Take AACACUGCCCAUGCCGGUCCCAAGCCCGGAUAAAAGUGGAGGGUGCGG: the self-cleavage came to 0.859.
For the variant AAUACUGCCAAUGCCGGUCCCAAGCCCGGAUAAAAGUGGAGAGGGCGG, the self-cleavage worked out at 0.0772.
For the variant AACACUGCCAAUGCCGGUCCCAAGCCCGGAUAAAAGUGGAGGGUGCGU, the self-cleavage is 0.545.
Next, AACGCUGCCAAUGCCGGUCCUAAGCCCGGAUAAAAGUGGAGGGGGCGG: 0.118.
Next, AACACUGCGAAUGCCGGUCCCAUGCCCGGAUAAAAGUGGAGGGGGCGG: 0.0839; AACACUGCCAAUGCCGUUCCCAAGCCCGGAUAGAAGUGGAGGGGGCGG: 0.317.
With AACACUCCCAAUGUCGGUCCCAAGCCCGGAUAAAAGUGGAGGGGGCGG, the self-cleavage is 0.0373.
With AACACUGCCAAUGCCAGUCCCAAGCCCGGAUAUAAGUGGAGGGGGCGG, the self-cleavage was 0.858.
Next, AACACUGCCAAUGCCGGUCCCAAGCCCGGUUAAAAGUCGAGGGGGCGG: 0.88; AACACUGCCAAAGCCGGUCCCAAGCCCGGAUAAAAGUGGACGGGGCGG: 0.264; AACACUGCCAAAGCCGGUCCCAAGCCCGGAUAAAAGUGGAGGGGGCGU: 1.18.
As for AACACAGCCAAUGCCGGUCCCAAGCCCGGAUAAAAGUGAAGGGGGCGG, the self-cleavage stood at 0.255.
Next, AACAAUGCCAAUGCCGGUCCCAAGCCCAGAUAAAAGUGGAGGGGGCGG: 0.232.
AACACUGCGAAUGCCGGUCUCAAGCCCGGAUAAAAGUGGAGGGGGCGG: the self-cleavage is 0.23.
As to AACACUGCCAAUGCCGCUCCCAAGCCCGGAUAAAAGUGGAGGGGACGG, the self-cleavage is 0.132.
As to AACACUGCCAAUUCCGGGCCCAAGCCCGGAUAAAAGUGGAGGGGGCGG, the self-cleavage was 0.0548.
Turning to AACACUGCCAAUGCCGCUCCCAAGCCCGGAUAAAAGUGGAGGGGGCGC, the self-cleavage amounted to 0.152.
In the case of AACACUGCCAUUGCCGGUCCCAAGCCCGGAUAACAGUGGAGGGGGCGG, the self-cleavage stood at 0.365.
